Source: patent publication US20110027794

What was measured:
[1] = system: unnamed basic selection target protein (pI 9, 9 kDa); test: SELEX; conditions: 2'-F at all nucleotides; 0.89% bound with protein vs 0.48% without after 4 rounds; 20 mM Tris pH 7.4, 150 mM NaCl, 4 mM KCl, 1 mM MgCl2, 1 mM CaCl2, 0.1% Tween-20, 37 C
[2] = target: DNase I (UniProt P00639); test: cleavage_in_vitro; conditions: 2'-F at all nucleotides; 100 mM NaOAc, 5 mM MgCl2, 37 C, 5 min
Chain of DNase I (P00639 23-282): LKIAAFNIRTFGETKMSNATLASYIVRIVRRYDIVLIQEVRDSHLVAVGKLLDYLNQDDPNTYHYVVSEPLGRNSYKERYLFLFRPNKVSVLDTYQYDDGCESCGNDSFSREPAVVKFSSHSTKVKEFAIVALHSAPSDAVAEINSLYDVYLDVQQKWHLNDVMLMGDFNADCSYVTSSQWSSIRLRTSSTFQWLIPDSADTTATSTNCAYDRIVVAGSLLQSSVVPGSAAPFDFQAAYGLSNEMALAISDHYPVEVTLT

| Sequence | binding signal (fold over no-protein control) [1] | binding signal (fold more stable than DNA) [2] |
| --- | --- | --- |
| GTGGAACCGACAGTGGTACGTGNNNNNNNNNNNNNNNNNNNNNNNNNNNNNNNNNNNNNNNNCACGAGTGAAGTCTGAGCTCC [BSA-1C FNA pool, selection round 4] | 1.85 |  |
| NNNNNNNNNNNNNNNNNNNNNNNNNNNNNNNNNNNNNNNNCACGAGTGAAGTCTGAGCTCC |  | > 100 |
